In patent US20210371505A1 (Regeneron, published 2021):

Biological target: Hemagglutinin of A/Wisconsin/67/2005 (H3N2) overexpressed on 3T3 cells (Influenza A virus A/Wisconsin/67/2005 …)
Assay: cell-based or functional assay

B1: H1H14611N2 (antibody, V domains shown)
VH: EVQLVESGGGLVKPGGSLRLSCAASGFTFSGFSMNWVRQVPGKGLEWVSSISTSGNYMYYADSVKGRFTISRDNAKKSFSLQMNSLRAEDSAIYYCARGGGYNWNLFDYWGQGSLVTVSS
VL: EIVLTQSPGTLSLSPGERATLSCRASQSLNSNYLAWYQQKPGQAPRLLIYGASSRATGIPDRFSGSGSGTDFTLTITRLESEDFAVYYCQQYGNSPLTFGGGTKVEIK
B1 was tested, and the “EC50, ADCC with human donor PBMCs (CytoTox-Glo)” value was 146 pM and the “EC50, FcγRIIIA activation in the ADCC-Glo reporter bioassay (Promega)” value was 871 pM.
